Measured values as given in the supplement of paper PMC10567573.
± gives the standard deviation.

Assay: protein stability index of a GFP-peptide fusion (GPS, HEK-293T) (PSI 1-6); higher = more stable
[1] = treatment: DMSO, c terminus: a fixed tail appended
[2] = treatment: MLN4924 1 uM, 8 h, c terminus: a fixed tail appended
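Further: 24-mer peptide tiles fused after GFP, lentivirally expressed, FACS-sorted into six equal bins by GFP/DsRed ratio, decoded by Illumina sequencing, PSI is the read-weighted mean bin number.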

| Sequence | protein stability index [1] | protein stability index [2] | protein stability index (treatment: DMSO, c terminus: native) | protein stability index (treatment: MLN4924 1 uM, 8 h, c terminus: native) |
| --- | --- | --- | --- | --- |
| GRGLLRWDSFSAWLHCVCVVGFDL [DENND6A] | 2.77 ± 0.58 | 2.83 ± 0.69 |  |  |
| GRLGKQCRERWHNHLNPEVKKSCW [MYBL2] | 2.42 ± 0.17 | 2.99 ± 0.41 |  |  |
| GRSGPGCAVLDDSIYLVGGYSWSM [KLHL14] | 2.7 ± 0.39 | 2.38 ± 0.63 |  |  |
| GSARSHASSRASENQSPSSSNYFS [ZBTB22] | 4.28 ± 0.22 | 4.74 ± 0.2 |  |  |
| GSEVVPVISPMYQLHKPLAEGTPR [IKZF1] | 3.56 ± 0.16 | 4.21 ± 0.49 |  |  |
| GSIPEFFHIMKRKFTNKEWETIRS [AASDHPPT] | 2.73 ± 0.27 | 2.46 ± 0.3 |  |  |
| GSLSLSFEREPSTSDLGTTDVQKK [RIPK4] | 5.26 ± 0.45 | 5.31 ± 0.064 |  |  |
| GSSDSEEERATRLAELQEQLKAVH [BRD3] | 5.13 ± 0.23 | 5.15 ± 0.27 |  |  |
| GTKLIFRRRPRQKEAGLSQSHDDL [C2CD2L] | 4.03 ± 0.46 | 4.04 ± 0.3 |  |  |
| GTSDYDDVLSCEYYSPILDQWTPI [KLHL13] | 2.41 ± 0.33 | 2.34 ± 0.19 |  |  |
| GVDHTKMSLHGASGGHERSRDRRR [BTBD10] | 5.26 ± 0.27 | 5.3 ± 0.24 |  |  |
| GWCIFVYNLSPEADESVLWQLFGP [ELAVL3] | 2.8 ± 1.4 | 3.7 ± 1.2 |  |  |
| GWYRPPFSRVVHLYRNGKDQDGDQ [MOG] | 3.67 ± 0.34 | 3.73 ± 0.26 |  |  |
| GYCSNQLAAKALLDQKKQDPRVQD [NET1] | 4.89 ± 0.23 | 4.9 ± 0.21 |  |  |
| GYLVTKVVAVDRDSGQNAWLSYRL [PCDHGA10] | 2.6 ± 0.56 | 2.58 ± 0.69 |  |  |
| HATALVEAFRLKQQLHARYVLNLL [PPEF2] | 2.43 ± 0.38 | 2.6 ± 0.51 |  |  |
| HAVVGVATALAPLQTDHYAALLGS [SPSB2] | 2.37 ± 0.18 | 2.29 ± 0.39 |  |  |
| HAYIHSVQFSHHVFLNLHTLKFYC [USP39] | 3.33 ± 0.42 | 3.04 ± 0.56 |  |  |
| HECKLTQEILELIDREVDLMMRGV [IQUB] | 2.88 ± 0.2 | 3.17 ± 0.67 |  |  |
| HELVWAKMKGFGFWPAKVMQKEDN [ZMYND11] | 3.06 ± 0.37 | 3.09 ± 0.47 |  |  |
| HGDDLKNTKNEISELTRLIQRIRS [KRT71] | 2.77 ± 0.18 | 3.11 ± 0.3 |  |  |
| HGEELRVSARSREGRGGRPGSTRP [HAGHL] | 4.92 ± 0.2 | 4.93 ± 0.16 |  |  |

| Sequence | protein stability index [1] | protein stability index [2] | protein stability index (treatment: DMSO, c terminus: native) | protein stability index (treatment: MLN4924 1 uM, 8 h, c terminus: native) |
| --- | --- | --- | --- | --- |
| HGNEVLGRELLLLLVQFVCQEYLA [CPXM2] | 3.11 ± 1.1 | 2.98 ± 1.2 |  |  |
| HGRIPDPDDFVPPVPPPSYFATFY [FAM189A2] | 2.24 ± 0.25 | 2.23 ± 0.34 |  |  |
| HIKFPIDYPYSPPTFRFLTKMWHP [UBE2R2] | 2.3 ± 0.32 | 2.24 ± 0.39 |  |  |
| HKLVSASTDNIVSQWDVLSGDCDQ [RBBP5] | 4.73 ± 0.18 | 4.68 ± 0.11 |  |  |
| HQDLKYISPETMVALLTGKFSNIV [CDC25B] | 2.23 ± 0.41 | 2.55 ± 0.54 |  |  |
| HQSLSLASSPKGTIENILDNDPRD [CDC25A] | 5.3 ± 0.2 | 5.22 ± 0.18 |  |  |
| HRFVEKPQVFVSNKINAGMYILSP [GMPPB] | 2.25 ± 0.21 | 2.29 ± 0.13 |  |  |
| HSQFIGYPITLYLEKEREKEISDD [HSP90AB1] | 3.82 ± 0.082 | 3.9 ± 0.26 |  |  |
| HTEERPYECNHCGKGFRHSSSLAQ [ZNF8] | 3.58 ± 0.3 | 3.79 ± 0.27 |  |  |
| HVAVEHQLPPASRCVLVFEQVRFL [SOAT2] | 2.66 ± 0.86 | 2.36 ± 0.61 |  |  |
| HVFIGDHSGQVTILKLEQENCTLV [WDFY2] | 2.09 ± 0.39 | 2.19 ± 0.19 |  |  |
| HVKETQPPETVQNWIELLSGETWN [GOLPH3] | 3.67 ± 0.36 | 3.86 ± 0.41 |  |  |
| HVSYRELGACVRTAVAQGGWRSLW [SLC25A39] | 2.01 ± 0.19 | 2.13 ± 0.2 |  |  |
| IADYLLLPLAEREHVSRALCIHTG [TRIB1] | 2.23 ± 0.47 | 2.02 ± 0.33 |  |  |
| IANPNSLHHVKTMWYPEIKHFCPR [RHOBTB2] | 2.36 ± 0.25 | 2.64 ± 0.2 |  |  |
| ICSSLQNLEKTIFCLQKLISLHPF [C8orf76] | 3.28 ± 1 | 2.65 ± 0.39 |  |  |
| IDFLRVVRNQQSLAVSNMGARSKG [PTPN9] | 2.76 ± 0.17 | 3.46 ± 0.098 |  |  |
| IEDSTGLNRPGPAPLSSRKHVLYV [TCF25] | 2.27 ± 0.45 | 2.35 ± 0.31 |  |  |
| IEQFSESHAIHVEEQSDQSFSSLE [IQUB] | 5.1 ± 0.095 | 5.14 ± 0.17 |  |  |
| IERCIFPERIYQGSSGSYFVKDPQ [PI4K2A] | 3.25 ± 0.22 | 3.2 ± 0.35 |  |  |
| IFSFLPAPDRLRASASCSHWRECL [FBXO33] | 2.41 ± 0.28 | 2.07 ± 0.38 |  |  |
| IITRHNLTYEFLQARLRQHYQTI [CLCN6] |  |  | 2.75 ± 0.49 | 2.69 ± 0.46 |

| Sequence | protein stability index [1] | protein stability index [2] | protein stability index (treatment: DMSO, c terminus: native) | protein stability index (treatment: MLN4924 1 uM, 8 h, c terminus: native) |
| --- | --- | --- | --- | --- |
| ILTATVDNANILLQIDNARLAADD [KRT17] | 3.29 ± 0.075 | 3.26 ± 0.19 |  |  |
| IMDTVGNIWVCYASYVVFRIIYML [SLC19A2] | 2.83 ± 0.41 | 3.12 ± 0.53 |  |  |
| IMTDLYYLSQTDGAGDWREKEAKD [FUT8] | 3.59 ± 0.42 | 3.69 ± 0.32 |  |  |
| INYCALNKPGCEHECVNMEESYYC [MATN2] | 3.26 ± 0.7 | 3.28 ± 0.64 |  |  |
| IPLEQGSSCNGPGQTTGHPYYLRS [FAN1] | 5.05 ± 0.38 | 5 ± 0.18 |  |  |
| IPPMAQPGLPPVPGAPGMPPGIPP [ZNF207] | 4.29 ± 0.24 | 4.4 ± 0.35 |  |  |
| IQEQKVVLEENGEKNQVQLGKLEA [SASS6] | 5.2 ± 0.22 | 5.42 ± 0.3 |  |  |
| IQFKKHEEEGIETQYFAELLMTSG [CNOT7] | 2.82 ± 0.21 | 2.82 ± 0.35 |  |  |
| IQQALTMFPGVLLPLLESCSVRPD [TCF25] | 2.4 ± 0.5 | 3.18 ± 0.58 |  |  |
| ISEHEHFTDFNATSALFWEQHDLV [CLPTM1] | 3.33 ± 0.27 | 3.38 ± 0.35 |  |  |
| ITHTREEQPHGRSRRREQSSSRNS [ZNF8] | 5.33 ± 0.37 | 5.41 ± 0.13 |  |  |
| ITVKNLRMAIGYLHSHRHLYPEGI [POMT2] | 3.02 ± 0.38 | 2.88 ± 0.58 |  |  |
| IVYHPYRPLLQYVQDMGQEDMLLP [CCNC] | 2.25 ± 0.57 | 1.93 ± 0.34 |  |  |
| IWSEVFTVEKPGGKKVAVVLMDTQ [ATL3] | 2.2 ± 0.34 | 2.37 ± 0.39 |  |  |
| IYKKYALQSAAGKDAAKQIAWIKD [PDS5B] | 2.03 ± 0.3 | 2.61 ± 0.44 |  |  |
| IYKLEEHEEFFPAFQAFTNDLLEI [CEP70] | 2.43 ± 0.24 | 2.39 ± 0.072 |  |  |
| IYLLRRQIRTVIQYQTVRYDILPL [CTDNEP1] | 2.94 ± 0.34 | 2.56 ± 0.51 |  |  |
| KAAGSVSKSTQFEYAWCLVRSKYN [FIS1] | 2.24 ± 0.57 | 2.17 ± 0.37 |  |  |
| KAFREEMKIFREKIEDFREEMWTF [CCDC70] | 2.35 ± 0.2 | 2.03 ± 0.54 |  |  |
| KAKQEKVSAQYLSEIEMAKAQRDY [FLOT1] | 4.54 ± 0.12 | 4.64 ± 0.18 |  |  |
| KAPYLCEATHEPAAARIRAQVPDT | 4.65 ± 0.4 | 4.2 ± 0.68 |  |  |
